Where two headings read alike, the source gives them in different places.

One may read the Kd as the free concentration of one partner at which half of the binding sites on the other are occupied at equilibrium, for simple one-to-one binding. A low value points to a tighter complex. The term koff denotes the first-order rate constant of dissociation. A higher koff goes with fast dissociation. One may read the kon as the second-order rate constant of association. Read a high kon as fast association.

In assay [1] the target is T1, SsoPCNA1:MsePCNA2 complex (Sulfolobus solfataricus | …, UniProt P57766 1-249; A4YHP5 1-244).
T1 construct: SsoPCNA1, PCNA subunit 1 of Sulfolobus solfataricus; as m4; MsePCNA2 (Msed_1792), PCNA homologue of Metallosphaera sedula; as m2; Formed on the SPR chip: MsePCNA2 immobilised on CM5, then 1 μM SsoPCNA1 applied; also called immobilised MsePCNA2 that tethered SsoPCNA1
T1 sequence (looked up) 1: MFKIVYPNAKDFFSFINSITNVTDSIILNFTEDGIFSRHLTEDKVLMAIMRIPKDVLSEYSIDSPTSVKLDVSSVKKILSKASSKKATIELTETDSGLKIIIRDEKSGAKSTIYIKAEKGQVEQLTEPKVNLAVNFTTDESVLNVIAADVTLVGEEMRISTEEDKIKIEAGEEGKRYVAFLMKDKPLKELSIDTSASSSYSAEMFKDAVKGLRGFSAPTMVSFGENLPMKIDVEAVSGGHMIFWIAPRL
T1 sequence (looked up) 2: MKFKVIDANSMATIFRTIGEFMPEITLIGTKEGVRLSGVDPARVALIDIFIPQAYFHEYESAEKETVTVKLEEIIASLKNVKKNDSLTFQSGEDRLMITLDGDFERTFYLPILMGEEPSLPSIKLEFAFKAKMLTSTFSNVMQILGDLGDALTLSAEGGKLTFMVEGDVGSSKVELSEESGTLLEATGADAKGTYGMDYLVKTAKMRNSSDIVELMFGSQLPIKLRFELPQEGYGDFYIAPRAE
The assay can be described thus: SPR; Biacore; MsePCNA2 or SsoPCNA2 immobilised on CM5, 1 μM MsePCNA1 or SsoPCNA1 applied, then MsePCNA3 or SsoPCNA3 injected at various concentrations; plateau signal fitted to a Langmuir isotherm; 10 mM HEPES-HCl pH 7.4, 150 mM NaCl. Background: In SPR one partner is held on a chip, and binding of the other changes the refractive index at the surface.

Assay [2] concerns the target T2, MsePCNA1:MsePCNA2 heterodimer (Metallosphaera sedula, UniProt A4YCS6 1-247; A4YHP5 1-244).
T2 construct: MsePCNA1 (Msed_0051), PCNA homologue of Metallosphaera sedula; as m1; MsePCNA2 (Msed_1792), PCNA homologue of Metallosphaera sedula; as m2; In SPR formed on the chip: MsePCNA2 immobilised on CM5, then 1 μM MsePCNA1 applied; In the pull-down and SEC formed in the mixture; Tag removal is said for the pull-down only; also called immobilised MsePCNA2 with MsePCNA1; MsePCNA1 and MsePCNA2 together; …
T2 sequence (looked up) 1: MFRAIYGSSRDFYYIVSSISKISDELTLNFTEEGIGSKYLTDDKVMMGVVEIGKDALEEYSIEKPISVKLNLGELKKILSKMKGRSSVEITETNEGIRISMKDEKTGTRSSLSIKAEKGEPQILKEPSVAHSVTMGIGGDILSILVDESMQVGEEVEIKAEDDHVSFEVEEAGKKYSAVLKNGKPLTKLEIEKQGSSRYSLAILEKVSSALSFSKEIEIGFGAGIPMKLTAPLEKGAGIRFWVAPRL
T2 sequence (looked up) 2: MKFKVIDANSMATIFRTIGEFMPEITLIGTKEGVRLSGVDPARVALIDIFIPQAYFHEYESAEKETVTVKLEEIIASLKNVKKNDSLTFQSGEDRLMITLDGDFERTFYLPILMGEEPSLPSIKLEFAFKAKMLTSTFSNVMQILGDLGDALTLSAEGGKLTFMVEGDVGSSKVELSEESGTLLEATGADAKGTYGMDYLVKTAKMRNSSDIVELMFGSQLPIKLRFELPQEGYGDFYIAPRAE
The description is as above.

For assay [3], the target named is SsoPCNA1:SsoPCNA2 heterodimer (Sulfolobus solfataricus) (UniProt P57766). The assay is described as above.
For another assay, the target named is T3, MsePCNA1 (Metallosphaera sedula, UniProt A4YCS6 1-247).
T3 construct: MsePCNA1 (Msed_0051), PCNA homologue of Metallosphaera sedula; 'His6-tag-removed' is said for the pull-down only; also called Msed_0051; M. sedula PCNA homologue 1
T3 sequence (looked up): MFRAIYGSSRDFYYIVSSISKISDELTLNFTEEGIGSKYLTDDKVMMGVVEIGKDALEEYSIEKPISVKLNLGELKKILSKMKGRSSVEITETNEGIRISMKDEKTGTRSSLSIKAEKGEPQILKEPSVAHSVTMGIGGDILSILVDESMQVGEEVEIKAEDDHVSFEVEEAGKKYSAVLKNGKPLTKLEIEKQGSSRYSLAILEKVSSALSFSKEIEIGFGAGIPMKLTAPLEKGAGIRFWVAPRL
Nature of the assay: SPR; Biacore; about 350 RU of MsePCNA2 or SsoPCNA2 immobilised on Sensor Chip CM5; MsePCNA1 or SsoPCNA1 injected (2.5, 5, 10, 20, 40 nM), kinetic fit; 10 mM HEPES-HCl pH 7.4, 150 mM NaCl. To be noted: both partners purified.

A further assay deals with T4, SsoPCNA1 (Sulfolobus solfataricus, UniProt P57766 1-249).
T4 construct: SsoPCNA1, PCNA subunit 1 of Sulfolobus solfataricus; also called S. solfataricus PCNA1
T4 sequence (looked up): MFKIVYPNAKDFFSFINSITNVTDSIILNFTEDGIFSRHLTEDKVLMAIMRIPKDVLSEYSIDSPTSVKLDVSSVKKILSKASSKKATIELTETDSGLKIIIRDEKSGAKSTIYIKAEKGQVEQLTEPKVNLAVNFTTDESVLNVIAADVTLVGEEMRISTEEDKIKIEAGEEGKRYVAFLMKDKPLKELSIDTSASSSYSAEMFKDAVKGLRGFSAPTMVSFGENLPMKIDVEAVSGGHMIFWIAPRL
The description is as above. To be noted: both partners purified.

Assay [4] has as its target T5, MsePCNA2 (Metallosphaera sedula, UniProt A4YHP5 1-244).
T5 chain: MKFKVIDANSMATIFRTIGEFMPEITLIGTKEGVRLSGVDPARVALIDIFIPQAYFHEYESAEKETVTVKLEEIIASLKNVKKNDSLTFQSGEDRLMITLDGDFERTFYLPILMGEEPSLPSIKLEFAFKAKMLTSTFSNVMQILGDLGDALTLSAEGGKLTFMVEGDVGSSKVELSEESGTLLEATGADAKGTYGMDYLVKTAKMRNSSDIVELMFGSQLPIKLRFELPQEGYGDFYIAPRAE
Nature of the assay: SPR; 10 nM MsePCNA1.

Assay [5] addresses T6, SsoPCNA2 (Sulfolobus solfataricus).
T6 chain: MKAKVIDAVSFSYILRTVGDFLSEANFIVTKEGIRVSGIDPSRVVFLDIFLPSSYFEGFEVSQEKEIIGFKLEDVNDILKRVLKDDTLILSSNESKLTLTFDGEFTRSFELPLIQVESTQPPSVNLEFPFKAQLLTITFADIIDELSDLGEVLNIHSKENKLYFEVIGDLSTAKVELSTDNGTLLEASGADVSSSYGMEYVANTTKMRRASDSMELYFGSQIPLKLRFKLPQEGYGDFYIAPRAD
Nature of the assay: SPR; 5 nM MsePCNA1.

Assay [6] addresses T6, SsoPCNA2. Nature of the assay: SPR; 50 nM MsePCNA1.
Assay [7] has as its target T5, MsePCNA2. The assay can be described thus: SPR; 20 nM MsePCNA1.
Assay [8] addresses T5, MsePCNA2. The assay can be described thus: SPR; 1.25 nM MsePCNA1.
Assay [9] deals with T5, MsePCNA2. The assay can be described thus: SPR; 40 nM MsePCNA1.
The target in assay [10] is T6, SsoPCNA2. Nature of the assay: SPR; 10 nM MsePCNA1.
The target of assay [11] is T5, MsePCNA2. Nature of the assay: SPR; 10 nM MsePCNA1.
Assay [12] addresses T5, MsePCNA2. Nature of the assay: SPR; 1.25 nM MsePCNA1.
Assay [13] concerns the target T6, SsoPCNA2. The assay can be described thus: SPR; 20 nM MsePCNA1.
The target in assay [14] is T5, MsePCNA2. Nature of the assay: SPR; 20 nM MsePCNA1.
Assay [15] deals with T6, SsoPCNA2. Nature of the assay: SPR; 2.5 nM MsePCNA1.
Assay [16] concerns the target T5, MsePCNA2. Nature of the assay: SPR; 2.5 nM MsePCNA1.
Assay [17] deals with T6, SsoPCNA2. Nature of the assay: SPR; Biacore; about 350 RU of MsePCNA2 or SsoPCNA2 immobilised on Sensor Chip CM5; MsePCNA1 or SsoPCNA1 injected (2.5, 5, 10, 20, 40 nM), kinetic fit; 10 mM HEPES-HCl pH 7.4, 150 mM NaCl.
For assay [18], the target named is T6, SsoPCNA2. The assay can be described thus: SPR; 40 nM MsePCNA1.
For assay [19], the target named is T5, MsePCNA2. Nature of the assay: SPR; 40 nM MsePCNA1.
Assay [20] deals with T6, SsoPCNA2. Nature of the assay: SPR; 2.5 nM MsePCNA1.
Assay [21] concerns the target T5, MsePCNA2. The assay can be described thus: SPR; 2.5 nM MsePCNA1.
Assay [22] addresses T6, SsoPCNA2. Nature of the assay: SPR; 5 nM MsePCNA1.
For assay [23], the target named is T5, MsePCNA2. The assay can be described thus: SPR; 5 nM MsePCNA1.

Turning to SsoPCNA3 (natural protein), the Kd in assay [1] is 170 nM; in assay [2], 190 nM; in assay [3], 200 nM.

B1: MsePCNA2 (natural protein, Metallosphaera sedula, UniProt A4YHP5 1-244, looked up)
chain: MKFKVIDANSMATIFRTIGEFMPEITLIGTKEGVRLSGVDPARVALIDIFIPQAYFHEYESAEKETVTVKLEEIIASLKNVKKNDSLTFQSGEDRLMITLDGDFERTFYLPILMGEEPSLPSIKLEFAFKAKMLTSTFSNVMQILGDLGDALTLSAEGGKLTFMVEGDVGSSKVELSEESGTLLEATGADAKGTYGMDYLVKTAKMRNSSDIVELMFGSQLPIKLRFELPQEGYGDFYIAPRAE
notes: MsePCNA2 (Msed_1792), PCNA homologue of Metallosphaera sedula; 'His6-tag-removed' is said for the pull-down only; also called Msed_1792; M. sedula PCNA homologue 2
As to B1, in the assay with MsePCNA1, binding was put at a Kd of 0.33 nM, the koff came to 8.9e-05 s⁻¹ and the kon amounted to 280000 M⁻¹ s⁻¹. In the assay with SsoPCNA1, this molecule came in with a Kd of 1.8 nM, a koff of 0.00044 s⁻¹ and a kon of 270000 M⁻¹ s⁻¹.

B2: MsePCNA1 (natural protein)
chain: MFRAIYGSSRDFYYIVSSISKISDELTLNFTEEGIGSKYLTDDKVMMGVVEIGKDALEEYSIEKPISVKLNLGELKKILSKMKGRSSVEITETNEGIRISMKDEKTGTRSSLSIKAEKGEPQILKEPSVAHSVTMGIGGDILSILVDESMQVGEEVEIKAEDDHVSFEVEEAGKKYSAVLKNGKPLTKLEIEKQGSSRYSLAILEKVSSALSFSKEIEIGFGAGIPMKLTAPLEKGAGIRFWVAPRL
As to B2, the koff turned out to be 7.99e-05 s⁻¹ with MsePCNA2 [4]; 5.79e-05 s⁻¹ with MsePCNA2 [7]; 0.000128 s⁻¹ with MsePCNA2 [8]; 4.29e-05 s⁻¹ in the assay with MsePCNA2 [9]; 0.0012 s⁻¹ in the assay with SsoPCNA2 [17]; 0.00134 s⁻¹ with SsoPCNA2 [20]. Besides, the koff came to 0.000121 s⁻¹ with MsePCNA2 [21], 0.00132 s⁻¹ with SsoPCNA2 [22] and 0.00011 s⁻¹ in the assay with MsePCNA2 [23]. Also, the Kd with SsoPCNA2 [5] came to 6.37 nM; in the assay with SsoPCNA2 [6], 27.5 nM; with SsoPCNA2 [10] it was 7.02 nM; with MsePCNA2 [11] it was 0.249 nM; in the assay with MsePCNA2 [12], 0.531 nM; with SsoPCNA2 [13], 12.9 nM. The Kd is 0.215 nM with MsePCNA2 [14]; 6.81 nM with SsoPCNA2 [15]; 0.396 nM with MsePCNA2 [16]; 1.6 nM in the assay with SsoPCNA2 [17]; 36 nM in the assay with SsoPCNA2 [18]; 0.253 nM in the assay with MsePCNA2 [19]. The same molecule gave a kon in the assay with SsoPCNA2 [17] of 130000 M⁻¹ s⁻¹.

B3: MsePCNA3 (natural protein, Metallosphaera sedula, UniProt A4YIY6 1-245, looked up)
chain: MRIAYANAMDFKTVIEALSKLIDEVTFTFTSSGLDVVAVDRAHISLIKLHFPKEAFEEFDVEDQFRFGFNTQYMLKVMASAKRKEKIEMESREESEIVIRMLGEPPREFTIRNIEVPIQELPELKLDFDVKAKITSGGFKKAVSEIATVSDSVEIDATEMEIKLRSKESTEIEVEFSKEMGGLQEIEVKKPSVSSYPSDYLEDVLVLTRLSGFLNLLFSEQKPLQLEFNMDNGGSVVYLLAPNVG
notes: MsePCNA3 (Msed_2250), PCNA homologue of Metallosphaera sedula; 'His6-tag-removed' is said for the pull-down only; also called Msed_2250; M. sedula PCNA homologue 3
Regarding B3, the Kd in assay [1] (both partners purified) came out at 380 nM; in [2] (both partners purified), 43 nM.
